In patent US20050118719A1:

Target: temperature sensitive C1 repressor polypeptide from thermoinducible bacteriophage P1Cm carrying the c1.100 mutation (bacteriophage P1)
Assay: cell-based or functional assay

Substance: Coi polypeptide (C1 inactivator polypeptide) from bacteriophage P1
- Basal activity (31° C.), Miller units; β-Gal from Op72lacZcoi reporter in K. pneumoniae: 36.4 Miller units
- Fold-induction; β-Gal from Op72lacZcoi reporter in K. pneumoniae: 19 fold
- Induced activity (42° C.), Miller units; β-Gal from Op72lacZcoi reporter in K. pneumoniae: 698 Miller units
